Assay results published in patent US20170335290A1 (published 2017).

Key:
[1] = target: T1, survivin, heteroclitic variant 97M peptide on HLA-A*02:01 (human); assay: 4-hour 51Cr release, 50% lysis at E:T 10:1, LML-pulsed T2 cells; value given for a published TCR (Leisegang et al. 2010); T cell clone or line
T1 peptide: LMLGEFLKL

[2] = target: T2, survivin peptide on HLA-A*02:01 (human); assay: killing
T2 peptide: ELTLGEFLKL

[3] = target: T3, survivin ELT, alanine substitution at position 3 (residues not given, written out from the filing's … (human)); assay: cytokine release
T3 peptide: ELALGEFLKL

[4] = target: T4, survivin ELT, alanine substitution at position 5 (residues not given, written out from the filing's … (human)); assay: cytokine release
T4 peptide: ELTLAEFLKL

[5] = target: T5, CD3d (CD3 delta) peptide on HLA-A*02:01 (human); assay: cytokine release
T5 peptide: LALGVFCFA

[6] = target: T6, CD3d (CD3 delta) peptide on HLA-A*02:01 (human); assay: cytokine release
T6 peptide: LLALGVFCFA

[7] = target: T7, CD81 (CD81 antigen) peptide on HLA-A*02:01 (human); assay: cytokine release
T7 peptide: QCLLGTFFTC

[8] = target: T8, CSF3R (Granulocyte colony stimulating factor receptor) peptide on HLA-A*02:01 (human); assay: cytokine release
T8 peptide: HIILGLFGLL

[9] = target: T9, CRLS1 (cardiolipin synthase) peptide on HLA-A*02:01 (human); assay: cytokine release
T9 peptide: NIALGVFALA

[10] = target: T10, EPB42 (Erythrocyte membrane protein band 4.2) peptide on HLA-A*02:01 (human); assay: cytokine release
T10 peptide: QLLLGQFTLL

[11] = target: T11, INGR2 (Interferon gamma receptor 2) peptide on HLA-A*02:01 (human); assay: cytokine release
T11 peptide: LLLLGVFAAA

[12] = target: T1, survivin, heteroclitic variant 97M …; assay: 4-hour 51Cr release, 50% lysis at E:T 10:1, clone #24 against LML-pulsed T2 cells, peptide titration; T cell clone or line
[13] = target: T2, survivin peptide on HLA-A*02:01; assay: 51Cr release, clone #24 against ELT-pulsed T2 cells, E:T 10:1, peptide titration (avidity as defined in Table 1); T cell clone or line

B1: A66 (TCR)
alpha TRAV13-1*02 TRAJ39*01 CDR3: CAARAGNMLTF
beta TRBV30*01 TRBJ2-7*01 CDR3: CAWGTGLALYEQYF
B1 gave an EC50 of peptide [1] of 50 nM.

B2: A72-TCR (TCR)
Valpha: AQKITQTQPGMFVQEKEAVTLDCTYDTSDQSYGLFWYKQPSSGEMIFLIYQGSYDEQNATEGRYSLNFQKARKSANLVISASQLGDSAMYFCAMREGGGYNKLIFGAGTRLAVHP
beta TRBV30*02 TRBJ1-1*01 CDR3: CAGQDLNTEAFF
B2: recognises [2]; recognises [3]; recognises [4]. B2: recognises [5]; no recognition [6]; recognises [7]. B2: no recognition [8]; no recognition [9]; no recognition [10]. For the same binder, the binding result [11] was “no recognition” and the EC50 of peptide [1] was 0.05 nM.

B3: s24-TCR (TCR, V domains shown)
Valpha: GESVGLHLPTLSVQEGDNSIINCAYSNSASDYFIWYKQESGKGPQFIIDIRSNMDKRQGQRVTVLLNKTVKHLSLQIAATQPGDSAVYFCAETVTDSWGKLQFGAGTQVVVTP
Vbeta: DAMVIQNPRYQVTQFGKPVTLSCSQTLNHNVMYWYQQKSSQAPKLLFHYYDKDFNNEADTPDNFQSRRPNTSFCFLDIRSPGLGDAAMYLCATSRGDSTAEPQHFGDGTRLSIL
B3: no recognition [5]; no recognition [6]; no recognition [7]. B3: no recognition [8]; no recognition [9]; no recognition [10]. The binding result [11] was “no recognition”, the EC50 of peptide [12] was 50 nM and the EC50 of peptide [13] was 1000 nM.
